From article PMC2944808
Read-outs that look alike come from different tables or passages of the source. Blank lines part the entries; values can stand above or below the substance they belong to.

Assays:
BMP2 (Homo sapiens) [1] = target: BMP2 (Homo sapiens) (UniProt P12643); assay: SPR; BIAcore 2000; BMP2 immobilised, CV2 proteins perfused; apparent KD from koff/kon; 6 to 9 analyte concentrations, at least three independent experiments
[2] = target: Chordin, full-length, mouse (mouse) (UniProt Q9Z0E2); assay: SPR; BIAcore 2000; Chordin immobilised, CV2 proteins perfused; apparent KD from koff/kon; 6 to 9 analyte concentrations, at least three independent experiments
Chain of Chordin, full-length, mouse (mouse) (Q9Z0E2 27-948): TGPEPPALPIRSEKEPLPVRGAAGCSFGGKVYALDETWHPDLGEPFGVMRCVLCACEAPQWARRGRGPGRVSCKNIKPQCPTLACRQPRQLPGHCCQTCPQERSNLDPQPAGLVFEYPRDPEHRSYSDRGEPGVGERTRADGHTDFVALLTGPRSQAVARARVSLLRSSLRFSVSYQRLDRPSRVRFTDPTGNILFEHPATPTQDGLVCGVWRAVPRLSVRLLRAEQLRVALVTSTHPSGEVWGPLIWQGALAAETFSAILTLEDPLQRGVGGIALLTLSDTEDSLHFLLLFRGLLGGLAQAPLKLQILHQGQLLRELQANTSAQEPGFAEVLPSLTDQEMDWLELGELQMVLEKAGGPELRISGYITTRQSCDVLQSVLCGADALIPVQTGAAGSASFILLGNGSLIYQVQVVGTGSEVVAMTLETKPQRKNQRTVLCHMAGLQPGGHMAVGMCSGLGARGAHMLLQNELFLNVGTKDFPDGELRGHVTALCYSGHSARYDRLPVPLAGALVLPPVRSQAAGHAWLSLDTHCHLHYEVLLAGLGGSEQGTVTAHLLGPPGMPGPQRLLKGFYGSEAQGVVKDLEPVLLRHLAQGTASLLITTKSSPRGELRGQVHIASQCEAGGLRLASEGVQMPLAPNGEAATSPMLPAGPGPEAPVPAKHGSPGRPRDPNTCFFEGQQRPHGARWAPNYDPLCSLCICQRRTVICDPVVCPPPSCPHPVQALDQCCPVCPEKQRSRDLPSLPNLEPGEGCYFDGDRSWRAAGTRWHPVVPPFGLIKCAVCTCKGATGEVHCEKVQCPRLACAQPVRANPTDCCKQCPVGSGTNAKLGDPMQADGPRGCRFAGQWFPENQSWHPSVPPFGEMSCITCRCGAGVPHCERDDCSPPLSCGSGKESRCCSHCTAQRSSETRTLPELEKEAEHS

[3] = target: VWC2 domain of Chordin, mouse (mouse); assay: SPR; BIAcore 2000; VWC2 domain of Chordin immobilised, CV2 proteins perfused; apparent KD from koff/kon; 6 to 9 analyte concentrations, at least three independent experiments
BMP2 (Homo sapiens) [4] = target: BMP2 (Homo sapiens) (UniProt P12643); conditions: cited from earlier work
[5] = target: Crossveinless-2 (CV2), full-length, zebrafish (zebrafish); assay: SPR; BIAcore 2000; CV2 immobilised on the chip (legend of Figure 1E: CV2-N), Chordin (50-600 nM) or Chordin VWC2 (10-120 nM) in solution; apparent KD

Chain of BMP2 (Homo sapiens) (P12643 283-396): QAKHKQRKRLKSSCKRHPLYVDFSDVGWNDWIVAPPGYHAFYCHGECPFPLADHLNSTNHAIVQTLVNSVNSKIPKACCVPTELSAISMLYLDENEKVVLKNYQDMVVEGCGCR
Chain of Chordin (Q9H2X0 27-955): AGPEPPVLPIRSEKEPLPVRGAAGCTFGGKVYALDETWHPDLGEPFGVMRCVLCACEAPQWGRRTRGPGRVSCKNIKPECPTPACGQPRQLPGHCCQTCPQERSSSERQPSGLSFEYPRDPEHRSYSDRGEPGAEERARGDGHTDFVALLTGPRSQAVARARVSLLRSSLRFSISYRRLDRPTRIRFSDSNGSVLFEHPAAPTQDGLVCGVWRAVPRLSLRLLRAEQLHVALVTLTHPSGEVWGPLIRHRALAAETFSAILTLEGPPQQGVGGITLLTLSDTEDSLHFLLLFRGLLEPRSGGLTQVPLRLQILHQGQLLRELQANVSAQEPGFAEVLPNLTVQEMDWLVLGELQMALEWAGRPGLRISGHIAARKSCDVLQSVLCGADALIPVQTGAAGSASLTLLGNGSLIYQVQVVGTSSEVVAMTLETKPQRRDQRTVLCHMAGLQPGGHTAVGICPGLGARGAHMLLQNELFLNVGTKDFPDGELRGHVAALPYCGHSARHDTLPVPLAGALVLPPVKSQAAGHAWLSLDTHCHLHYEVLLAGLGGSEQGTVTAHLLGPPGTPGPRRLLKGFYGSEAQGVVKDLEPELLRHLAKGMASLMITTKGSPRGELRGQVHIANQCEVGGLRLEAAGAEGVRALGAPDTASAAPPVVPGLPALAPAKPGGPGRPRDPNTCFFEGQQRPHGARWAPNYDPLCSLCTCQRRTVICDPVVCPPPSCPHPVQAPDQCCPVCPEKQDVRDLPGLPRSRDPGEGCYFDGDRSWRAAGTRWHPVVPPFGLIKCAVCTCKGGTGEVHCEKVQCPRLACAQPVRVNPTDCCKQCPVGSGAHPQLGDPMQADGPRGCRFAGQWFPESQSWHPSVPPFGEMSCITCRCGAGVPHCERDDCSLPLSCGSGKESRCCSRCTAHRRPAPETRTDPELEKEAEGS

Substance: CV2 T5P/I21R (natural protein)
Kd (BMP2 (Homo sapiens) [1]): 18000 nM
Kd [2]: 183 nM
Kd [3]: 172 nM

Substance: CV2-VWC1-5 (CV2-N) (domain or fragment)
Kd (BMP2 (Homo sapiens) [1]): 25 nM
Kd [2]: 170 nM
Kd [3]: 140 nM

Substance: CV2 ΔClip-SD1 (domain or fragment)
Kd [2]: 188 nM
Kd [3]: 170 nM

Substance: Crossveinless-2 (CV2), full-length, zebrafish (natural protein)
Kd (BMP2 (Homo sapiens) [1]): 22 nM
Kd [2]: 175 nM
Kd [3]: 150 nM

Substance: Chordin (from UniProt Q9H2X0)
Kd (BMP2 (Homo sapiens) [4]): 20 nM

More lines, now with the values ahead:

Kd (BMP2 (Homo sapiens) [1]): 22 nM
Substance: CV2 ΔSD2 (domain or fragment)

Kd [5]: 5 nM
Substance: VWC2 domain of Chordin, mouse (domain or fragment)

Kd (BMP2 (Homo sapiens) [1]): 24 nM
Substance: CV2-VWC1-3 (domain or fragment)
